Paper PMC8604678, “The MttB superfamily member MtyB from the human gut symbiont Eubacterium limosum is a cobalamin-dependent γ-butyrobetaine methyltransferase” (The Journal of Biological Chemistry, 2021)

Columns and labels:
[1] = substrate: C[N+](C)(C)C[C@H](O)CC(=O)O; experiment: UV-visible spectrophotometric MtqC methylation assay; type: biochemical, Eubacterium limosum; conditions: methyl acceptor Co(I)-MtqC 15 μM, RamQ 5 μM, ATP, Ti(III)citrate, pH 7.2, 37 °C, anoxic
[2] = substrate: C[N+](C)(C)CCCC(=O)[O-]; experiment: as above; type: biochemical, Eubacterium limosum; conditions: ATP, Ti(III)citrate, pH 7.2, 37 °C, anoxic
[3] = methyl acceptor Co(I)-MtqC 30 μM, RamQ 5 μM
[4] = methyl acceptor Co(I)-MtqC 56 μM, RamQ 4.5 μM

B1: MtyB (Eubacterium limosum) (protein)
chain: MLKGNLFTTFYSKDDIELIHESVLRVFNEVGVKFEYEEALELFKKHGARVEGDLVFIPEELLNKALSTIPESFEIVGPESKLEIGIGKGLVVAPTNGCPNLEDWDGNYRQTNADDLENFYKIINTSDVYGISSQVAADIPGFENCPTESALAQMAMMAKYSRKPMYNILGITPHNYKRGNAREGARECVQLIKKYMDNFDDYVCYSGMCVLPPLTVGTDALEHYFAFAEEKQPITITTCSMTNMTAPPSLMGSIVADFANMLAVAVMIQLIEPGLPVILSPFSSVSDMREVRLMTGAPEFLMIMSGHIAMGDFYRIPVRCSGALADGFTYDYQAGVESTLGALAVSLSNACILPHASGDLSNFNLLSFPKFMMDEEMLRYMKRLHDGVAISEKKANVELIKKVGPRGVYLKGRTPKDYREETYLTSPVFNRGTCNEEGRAATPPIQERAYKVYKERIESFELPDMTQAQKDLLNEHLPEKFKIK
notes: C-terminal hexahistidine tag, codon-optimized gene in pETDuet-1 co-expressed with mtqC in E. coli Tuner(DE3), separated from MtqC by anion exchange
Km [1]: 4.0 ± 0.7 mM
kcat [1]: 6.78 ± 0.442 s⁻¹
Km [2, 3]: 3.5 ± 0.7 mM
kcat [2, 3]: 3 ± 0.167 s⁻¹

B2: MtcB (Eubacterium limosum) (protein)
chain: MIRNSLTDVFFAKDDVENLHEGVLRVLSKVGVKIENDEALGIFEQHGARVENGTVYIGEVLLNKALQTVPANFELQGFDRTVQVGLDHDPVVIPTNGTPMVLNFDGSYSDTNTDDLVNFYKLIDTSDVMQVTSEIAVDVPGLDKTKDSLLAQTALLMKYSHKPIYNILGATIHNYKKGSVAQGVRENIQFAKKYYGYDDKYVIYSGTCVISPLGVGWEAMDHFMGFIKENQPISITACSMTNLTAPGSLYGSVVEDAAAILSIVVLSQLMNPGLPVLYTSLSSMSDMRYVQLCMGAPEFALITLGHIALANFYKIPVRVGGALGDAFKADYQAGVESFVGLMAPMLSQSAMIPHGCGTMGSFNLTSYEKFIMDEETIRYLMRLRRGFEVSDKRKEKALKDITKVGPRGNFLGGRTPKEYREDNYLASEVFNRKGCKENTREEQGDIRDRARKVYDARMEAYELPDTTLEQKKLLNTELPEQYKFDI
notes: expression plasmid of earlier work
Km [2, 4]: 15 ± 6 mM
kcat [2, 4]: 0.138 ± 0.0183 s⁻¹
